Results from the supplement of paper PMC7877785.
± gives the uncertainty stated by the source.

Assay: self-splicing fitness, log relative to wild type (ln ratio); higher = more splicing; Tetrahymena group I intron in knt gene, E. coli kanamycin selection, DiMSum; sequences stand for … in CUCUCU…GGAGGGAAAAGUUAUCAGGCAUGCACCUGGUAGCUAGUCUUUAAACCAAUAGAUUGCAUCGGUUUAAAAGGCAAGACCGUCAAAUUGCGGGAAAGGGGUCAACAGCCGUUCAGUACCAAGUCUCAGGGGAAACUUUGAGAUGGCCUUGCAAAGGGUAUGGUAAUAAGCUGACGGACAUGGUCCUAACCACGCAGCCAAGUCCUAAGUCAACAGAUCUUCUGUUGAUAUGGAUGCAGUUCACAGACUAAAUGUCGGUCGGGGAAGAUGUAUUCUUCUCAUAAGAUAUAGUCGGACCUCUCCUUAAUGGGAGCUAGCGGAUGAAGUGAUGCAACACUGGAGCCGCUGGGAACUAAUUUGUAUGCGAAAGUAUAUUGAUUAGUUUUGGAGUACUCGUGGUCG
Outline: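 Library with all eight P1ex-region intron nucleotides randomised, intron inside the knt kanamycin-resistance gene on pET-22b(+), in E. coli BL21(DE3). Cells grew overnight at 37°C or 30°C on LB agar with or without 25 μg/mL kanamycin (plus 100 μg/mL carbenicillin, 50 μM IPTG, 0.2% rhamnose), in six replicate transformations. Pooled colonies were amplicon-sequenced on Illumina HiSeq 2500. DiMSum fitness is the error-weighted combination of wild-type-normalised replicate fold changes, kanamycin versus none.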

Row | Sequence | self-splicing fitness (ln) (30 °C) | self-splicing fitness (ln) (37 °C)
1 | UCAAAGCAAUAUUACGCAAC | -4.31 ± 0.42 | –
2 | CCGGAGCAAUAUUACGUCGA | -3.12 ± 0.2 | -1.89 ± 0.19
3 | UGUAAGCAAUAUUACGGCUA | 0.0076 ± 0.11 | 0.536 ± 0.13
4 | UGAGAGCAAUAUUACGGAUC | -1.94 ± 0.25 | -2.32 ± 0.49
5 | AUGGAGCAAUAUUACGCCAC | -2.95 ± 0.41 | –
6 | AGUAAGCAAUAUUACGUGCU | -2.64 ± 0.23 | -1.2 ± 0.14
7 | UCGAAGCAAUAUUACGCACG | -1.8 ± 0.14 | -0.85 ± 0.14
8 | UAAUAGCAAUAUUACGCGAG | -1.62 ± 0.14 | -1.46 ± 0.13
9 | AUACAGCAAUAUUACGCAUC | -3.69 ± 0.16 | -2.8 ± 0.21
10 | UUAUAGCAAUAUUACGAAGG | -3.25 ± 0.39 | -1.67 ± 0.33
11 | GAUGAGCAAUAUUACGUCGG | – | -2.87 ± 0.34
12 | CAACAGCAAUAUUACGAAGU | – | -1.78 ± 0.16
13 | GCACAGCAAUAUUACGUGUA | -1.03 ± 0.052 | -0.512 ± 0.056
14 | AGAUAGCAAUAUUACGCUCG | -0.0589 ± 0.11 | -0.37 ± 0.12
15 | GCUCAGCAAUAUUACGAUUG | -2.83 ± 0.12 | -1.11 ± 0.12
16 | UUCUAGCAAUAUUACGAGUU | -2.55 ± 0.15 | -1.92 ± 0.13
17 | CGGUAGCAAUAUUACGAUUU | -2.17 ± 0.17 | -0.333 ± 0.15
18 | CACGAGCAAUAUUACGGCAG | -1.03 ± 0.11 | -0.837 ± 0.14
19 | GCAUAGCAAUAUUACGGAUC | -2.47 ± 0.21 | -1.63 ± 0.18
20 | CCGCAGCAAUAUUACGUGGC | -3.29 ± 0.16 | -2.3 ± 0.2

Row | Sequence | self-splicing fitness (ln) (30 °C) | self-splicing fitness (ln) (37 °C)
21 | UACCAGCAAUAUUACGCAUU | -2.42 ± 0.092 | -0.373 ± 0.078
22 | CGCCAGCAAUAUUACGAUAA | -3.9 ± 0.46 | -2.78 ± 0.35
23 | ACACAGCAAUAUUACGGUCG | -1.09 ± 0.051 | -0.473 ± 0.076
24 | CAAUAGCAAUAUUACGUUGG | -1.9 ± 0.099 | -1.3 ± 0.11
25 | CUUGAGCAAUAUUACGGGGA | -3.27 ± 0.2 | -2.87 ± 0.28
26 | AUCCAGCAAUAUUACGGUCC | -1.39 ± 0.13 | -0.176 ± 0.21
27 | UAGGAGCAAUAUUACGAUAG | -4.07 ± 0.28 | -1.95 ± 0.2
28 | AAUGAGCAAUAUUACGUUCA | -1.46 ± 0.12 | -0.27 ± 0.13
29 | AUCUAGCAAUAUUACGGGUG | -1.93 ± 0.067 | -0.57 ± 0.067
30 | ACGUAGCAAUAUUACGUGUG | -3.26 ± 0.14 | -3.01 ± 0.16
31 | ACAUAGCAAUAUUACGCAUG | -2.85 ± 0.13 | -1.15 ± 0.12
32 | GUGUAGCAAUAUUACGGUAG | – | -1.58 ± 0.23
33 | AGAAAGCAAUAUUACGCACA | -0.139 ± 0.1 | -0.236 ± 0.12
34 | GGGUAGCAAUAUUACGUACU | -2.25 ± 0.4 | -1.43 ± 0.38
35 | CAAAAGCAAUAUUACGGUCA | -1.83 ± 0.13 | 0.0762 ± 0.1
36 | CUGGAGCAAUAUUACGGAAG | -3.48 ± 0.41 | -1.45 ± 0.28
37 | UCACAGCAAUAUUACGCAUA | -2.02 ± 0.097 | -1.68 ± 0.093
38 | GCGUAGCAAUAUUACGGCCA | – | 0.769 ± 0.3
39 | AGACAGCAAUAUUACGGAUU | -2.55 ± 0.088 | -1.45 ± 0.089
40 | CAUGAGCAAUAUUACGGCCC | -2.29 ± 0.29 | –
